From patent publication US20190338035A1 (EUREKA THERAPEUTICS, published 2019) come the findings set out here.

B1: WT H3.1 26-35 peptide (peptide)
peptide: RKSAPATGGV
notes: Free synthetic peptide pulsed onto T2 cells; also called H3.1 26-35 WT peptide
B2: mutant histone K27M-H3.1 26-35 peptide (peptide)
peptide: RMSAPATGGV
notes: Free synthetic peptide pulsed onto T2 cells
B3: mutant histone K27M-H3.3 26-35 peptide (peptide)
peptide: RMSAPSTGGV
notes: as for B2
B4: Phage clone 31 (scFv)
scFv: QAVLTQPSSLSASPGASASLTCTLRSGINVGTYRIYWYQQKPGSPPQYLLRYKSDSDKQQGSGVPSRFSGSKDASANAGILLISGLQSEDEADYYCMIWHSSAWVFGGGTKLTVLGSRGGGGSGGGGSGGGGSLEMAEVQLVESGGGLVQPGGSLRLSCAASGLTFDRYAMSWVRQAAGKGLERFSAITGDGYYTYYADSVKGRFTISRDNSKNTLYLQMNSLGAEDTAVYYCARLSGIGRSSYDGWGQGTLVTVSS
notes: fusion to the phage coat protein not described
B5: Phage clone 10 (scFv)
scFv: EIVLTQSPLSLPVTLGQPASISCRSSQSLVYSNGNTYLSWFHQRPGQSPRRLIYKVSKRDSGVPDRFSGSGSGTDFTLKISRVEAEDVGVFYCMQGTYWPYTFGQGTKLEIKRSRGGGGSGGGGSGGGGSLEMAEVQLVQSGAEVKKPGESLKISCKGSGYSFTSYWIGWVRQMPGKGLEWMGIIYPGDSDTRYSPSFQGQVTISADKSISTAYLQWSSLKASDTAMYYCARGFDNWGQGTLVTVSS
notes: as for B4
B6: Phage clone 13 (scFv)
scFv: DVVMTQSPLSLPVTLGQPASISCRSSQSLIYSNGNTYLTWFHQRPGQPPRRLIHKVSNRDSGVPDRFSGSGSGSDFTLKISRVEAEDVGIYYCMQGTHWPPTFGGGTKLEIKRSRGGGGSGGGGSGGGGSLEMAEVQLVQSGAEVKKPGESLKISCKGSGYSFTSYWIGWVRQMPGKGLEWMGIIYPGDSDTRYSPSFQGQVTISADKSISTAYLQWSSLKASDTAMYYCARGYDVWGQGTLVTVSS
notes: as for B4
B7: Phage clone 16 (scFv)
scFv: B6 scFv with V236S
notes: as for B4
B8: Phage clone 5 (scFv)
scFv: B6 scFv with I30V, T39N, P48S, H54Y, K55E, S74T, I90V, V236G
notes: fusion to the phage coat protein not described; also called anti-HMC scFv 5
B9: Phage clone 35 (scFv)
scFv: SYVLTQPPSASGTPGQRVTISCSGSTFNIGSNTVNWYQQLPATAPKLLIYSNNQRPSGVPDRFSGSKSGTSASLAISGLQSEDAAAYYCAAWDDSLSGHVVFGGGTKLTVLGSRGGGGSGGGGSGGGGSLEMAEVQLVQSGAEVKKPGASVKVSCKASGYTFTSYGISWVRQAPGQGLEWMGWISAYNGNTNYAQKLQGRVTMTTDTSTSTAYMELRSLRSDDTAVYYCARYYESGYPFDWWGQGTLVTVSS
B10: Phage clone 36 (scFv)
scFv: SSELTQDPAVSVALGQTVRITCQGDSLRSYYANWYQQKPGQAPVLVIYAKSNRPSGIADRFSGSSSGNTASLTITGAQAEDEADYYCNSRDSSGNRWVFGGGTKVTVLGSRGGGGSGGGGSGGGGSLEMAEVQLVQSGAEVKKPGASVKVSCKASGYTFTGYYMHWVRQAPGKGLEWMGGFDPEDGETIYAQKFQGRVTMTEDTSTDTAYMELSSLRSEDTAVYYCARSSWWSPVTYYDIWGQGTLVTVSS
notes: as for B4
B11: Phage clone 34 (scFv)
scFv: QSVLTQPPSVSGAPGQRVTISCTGSSLNLGAGYDVHWYQQFPGTAPKLLIFANTNRPSGVPDRFSASKSGTSASLAITGLQAEDEADYFCQSYDNSLSGYVFGTGTKVTVLGSRGGGGSGGGGSGGGGSLEMAQVQLVQSGAEVKKPGSSVKVSCKASGGTFSSYAISWVRQAPGQGLEWMGGIIPIFGTANYAQKFQGRVTITADESTSTAYMELSSLRSEDTAVYYCARSYWTFEYSIDSWGQGTLVTVSS
B12: Phage clone 32 (scFv)
scFv: QSVLTQPPSVSGAPGQRVTISCTGSSSNLGAGYDVHWYQQLPGTAPKVLVYFNNNRPSGVPDRFSGSKSGTSASLAITGLQAEDEADYYCQSYDSSLSASVFGTGTKVTVLGSRGGGGSGGGGSGGGGSLEMAQVQLVESGAEVKKPGASVKVSCKASGYTFTSYTITWVRQAPGQGLEWMGWISPYNGNTNYAQNLQGRVTMTTDTSTTTAYMELRSLTSDDTAVYYCARSWEHGFPYDEWGQGTLVTVSS
B13: Phage clone 38 (scFv)
scFv: SYELTQPPSVSVAPGKTARITCGGNNIGSKSVNWYQQKPGQAPVLVIYYDNDRPSGIPERFSGSNSGNTATLTISRVEAGDEADYYCQVWNSSSDHYVFGTGTKVTVLGSRGGGGSGGGGSGGGGSLEMAQMQLVQSGAEVKTTGASVRVSCKASGYTFTDYYLHWVRQAPGQGLEWMGWINPHSGGTNYAQKFQGRVTMTRDTSISTAYMELSSLRSDDTAVYYCAREDYSGSGSSDAWGQGTLVTVSS
notes: as for B4
B14: Phage clone 33 (scFv)
scFv: QSVLTQPPSVSGAPGQRVTIFCTGSSSNIGAGYDVHWYQQLPGTAPKLLIYGNNNRPSGVPDRFSGSKSGTSASLAITGLQAEDEADYYCQSYDTSLTPVFGGGTKLTVLGSRGGGGSGGGGSGGGGSLEMAEVQLVQSGAEVRKPGSSVKVSCKASAGTFNRYSLSWVRQAPGQGLEWVGRIIPIIGVADYAQKFQGRVTITADKSATTAYMELHSLRSEDTAVYYCARQEYSYAMDYWGQGTLVTVSS
notes: as for B4

Where a chain is given by its changes, count along the chain named. Names and notes keep the numbering of the source.

One experiment has as its target T1, HLA-A*02:01 on T2 cells without peptide loading (human).
T1 construct: whole, on cells; TAP-deficient T2 cells with no exogenous peptide
As to the kind of experiment: T2 stabilisation assay, BB7.2 staining, flow cytometry. (A flow cytometer gives signals particle by particle.)
In the case of B1, the binding result is “binds”.

Regarding B2, the binding result is recorded as “binds”.

Consider B3, for which the binding result is given as “binds”.

The next experiment addresses T2, WT H3.3 26-35 peptide/HLA-A*02:01 complex on T2 cells (human).
T2 construct: whole, on cells; T2 cells pulsed with the synthetic peptide; also called T2-WT H3.3; T2-WT 3.3
As to the kind of experiment: flow cytometry, scFv phage on T2 cells, anti-M13 + PE anti-mouse IgG.
As for B4, the “Median MFI (PE-A)” value was 777 MFI.

With B5, the “Median MFI (PE-A)” value came out at 849 MFI.

On to B6, for which the “Median MFI (PE-A)” value stood at 784 MFI.

Regarding B7, the “Median MFI (PE-A)” value was determined as 2440 MFI.

For the molecule B8, the “Median MFI (PE-A)” value was 305 MFI.

A further experiment addresses T1, HLA-A*02:01 on T2 cells without peptide …. Described as above.
On to B4, for which the “Median MFI (PE-A)” value amounted to 125 MFI.

As to B5, the “Median MFI (PE-A)” value stood at 686 MFI.

In the case of B6, the “Median MFI (PE-A)” value was 543 MFI.

Take B7: the “Median MFI (PE-A)” value came to 1700 MFI.

In another experiment the target is T3, control peptide mixture P20/HLA-A*02:01 complexes on T2 cells (human).
T3 construct: whole, on cells; A pool of 20 different peptide/HLA-A*02:01 complexes on one cell population, not a single complex; also called T2-P20
The experiment is described as above.
Regarding B4, the “Median MFI (PE-A)” value was 128 MFI.

Regarding B5, the “Median MFI (PE-A)” value stood at 2010 MFI.

As for B6, the “Median MFI (PE-A)” value is 1560 MFI.

Consider B7, for which the “Median MFI (PE-A)” value came to 4190 MFI.

As for B8, the “Median MFI (PE-A)” value came out at 703 MFI.

The next experiment addresses T4, WT H3.1 26-35 peptide/HLA-A*02:01 complex on T2 cells (human).
T4 construct: whole, on cells; T2 cells pulsed with the synthetic peptide; also called T2-WT H3.1; T2-WT 3.1
The description is as above.
In the case of B4, the “Median MFI (PE-A)” value was 529 MFI.

On to B5, for which the “Median MFI (PE-A)” value was 770 MFI.

With B6, the “Median MFI (PE-A)” value is 761 MFI.

For B7, the “Median MFI (PE-A)” value was found to be 2320 MFI.

With B8, the “Median MFI (PE-A)” value was found to be 320 MFI.

A further experiment concerns the target T1, HLA-A*02:01 on T2 cells without peptide …. As to the kind of experiment: flow cytometry, scFv phage on T2 cells.
Turning to B4, the binding result is listed as “no binding”.

For another experiment, the target named is T2, WT H3.3 26-35 peptide/HLA-A*02:01 …. As to the kind of experiment: flow cytometry, scFv phage on T2 cells, anti-M13 + labelled anti-mouse IgG.
B9: the “Median MFI (PE-A)” value was 84200 MFI.

With B10, the “Median MFI (PE-A)” value is 33600 MFI.

As to B11, the “Median MFI (PE-A)” value is 8340 MFI.

B12: the “Median MFI (PE-A)” value amounted to 90800 MFI.

Regarding B13, the “Median MFI (PE-A)” value came out at 32900 MFI.

On to B14, for which the “Median MFI (PE-A)” value came to 49100 MFI.

For another experiment, the target named is T1, HLA-A*02:01 on T2 cells without peptide …. The description is as above.
As to B9, the “Median MFI (PE-A)” value was determined as 125 MFI.

With B11, the “Median MFI (PE-A)” value was 109 MFI.

As to B12, the “Median MFI (PE-A)” value came to 132 MFI.

Consider B13, for which the “Median MFI (PE-A)” value is 66 MFI.

Another experiment has as its target T3, control peptide mixture P20/HLA-A*02:01 …. Described as above.
Regarding B9, the “Median MFI (PE-A)” value turned out to be 124 MFI.

Regarding B10, the “Median MFI (PE-A)” value worked out at 11000 MFI.

With B11, the “Median MFI (PE-A)” value was 109 MFI.

B12: the “Median MFI (PE-A)” value worked out at 146 MFI.

For B13, the “Median MFI (PE-A)” value was 128 MFI.

In the case of B14, the “Median MFI (PE-A)” value was determined as 2860 MFI.
